Reference: publication PMC10967448, “ApoE Mimetic Peptide COG1410 Kills Mycobacterium smegmatis via Directly Interfering ClpC’s ATPase Activity” (Antibiotics, 2024)
Square brackets hold non-standard residues; d marks the D form. Ends that are not written are not given here. Aib = CC(C)(N)C(=O)O

Legend:
ClpC (S437P) [1] = biological target: ClpC (S437P) (M. smegmatis); assay: cell-based or functional assay
[2] = biological target: T1, ClpC (M. smegmatis AAA+ unfoldase, Clp-ATPase) (M. smegmatis); assay: cell-based or functional assay
ClpC (S437P) [3] = biological target: T2, ClpC (S437P) (M. smegmatis); assay: SPR; Biacore 8K; ClpC or ClpC (S437P) amine-coupled on a CM5 chip at pH 4.0 (around 6500 RU); COG1410 flowed at 125 to 2000 nM (2-fold dilutions); PBS pH 7.4, 0.05% tween-20, 25 °C, 30 μL/min; 1:1 Langmuir binding model; conditions: both partners purified
T2 construct: also called ClpC variant; ClpC (S437P) variant; source: E. coli BL21 (DE3), pET28a, purified (IMAC on Ni Sepharose 6 FF, desalting)

[4] = biological target: T1, ClpC (M. smegmatis AAA+ unfoldase, …); assay: as above; conditions: both partners purified

AS[Aib]LRKL[Aib]KRLL (not fully specified (N-terminus, C-terminus)) [COG1410]
ATPase activity of purified ClpC (S437P) (64 nM) with 10 μM COG1410 against ClpC alone (ClpC (S437P) [1]): ~7.4 fold | proteolytic activity on FITC-casein in the S437PP1P2 system with COG1410 against the control with ClpC alone (ClpC (S437P) [1]): ~7 fold | ATPase activity of purified ClpC (64 nM) with COG1410, dose series; at 10 μM COG1410 against ClpC alone [2]: ~3 fold | proteolytic activity on FITC-casein in the ClpCP1P2 system with 10 μM COG1410 [2]: 4 fold | Kd (ClpC (S437P) [3]): 1310 nM | koff (ClpC (S437P) [3]): 0.0119 s⁻¹ | kon (ClpC (S437P) [3]): 9900 M⁻¹ s⁻¹ | Kd [4]: 2030 nM | koff [4]: 0.0117 s⁻¹ | kon [4]: 5780 M⁻¹ s⁻¹
